From publication PMC6692507

Legend:
[1] = target: uL23(71pBpa), in 70S ribosomes, RNCs or living cells (E. coli) (UniProt P0ADZ0); assay: cross-linking; competition: SecA (2.5 uM) premixed with Ffh/SRP (0.5, 2.5, 12.5 uM) in buffer C, 10 min 30°C with 0.5 uM 70S ribosomes bearing pBpa at position 71 or 52 of uL23, UV 20 min on ice; anti-SecA and anti-Ffh blots
[2] = target: uL23(52pBpa), in 70S ribosomes, RNCs or living cells (E. coli) (UniProt P0ADZ0); assay: as above

Ffh, the protein component of the bacterial signal recognition particle (SRP), purified (from UniProt P0AGD7 1-453) (natural protein)
reduction of the SecA-uL23 cross-linking product with SRP equimolar to SecA [1]: 50% | reduction of the SecA-uL23 cross-linking product with SRP equimolar to SecA [2]: 50%
